The experiment deals with Flag-NEO1 (UniProt Q92859). As to the kind of experiment: immunostaining of cells or tissue; plate-based cell binding in 384-well plates: transfected COS-7 cells, blocked with PBS 1% BSA, CBLN4-Fc for 1 h on ice, fixed, detected with Alexa Fluor-488 anti-human IgG; candidate screen, titration series and DCC domain mapping.
Flag-NEO1, sequence (Q92859 34-1461): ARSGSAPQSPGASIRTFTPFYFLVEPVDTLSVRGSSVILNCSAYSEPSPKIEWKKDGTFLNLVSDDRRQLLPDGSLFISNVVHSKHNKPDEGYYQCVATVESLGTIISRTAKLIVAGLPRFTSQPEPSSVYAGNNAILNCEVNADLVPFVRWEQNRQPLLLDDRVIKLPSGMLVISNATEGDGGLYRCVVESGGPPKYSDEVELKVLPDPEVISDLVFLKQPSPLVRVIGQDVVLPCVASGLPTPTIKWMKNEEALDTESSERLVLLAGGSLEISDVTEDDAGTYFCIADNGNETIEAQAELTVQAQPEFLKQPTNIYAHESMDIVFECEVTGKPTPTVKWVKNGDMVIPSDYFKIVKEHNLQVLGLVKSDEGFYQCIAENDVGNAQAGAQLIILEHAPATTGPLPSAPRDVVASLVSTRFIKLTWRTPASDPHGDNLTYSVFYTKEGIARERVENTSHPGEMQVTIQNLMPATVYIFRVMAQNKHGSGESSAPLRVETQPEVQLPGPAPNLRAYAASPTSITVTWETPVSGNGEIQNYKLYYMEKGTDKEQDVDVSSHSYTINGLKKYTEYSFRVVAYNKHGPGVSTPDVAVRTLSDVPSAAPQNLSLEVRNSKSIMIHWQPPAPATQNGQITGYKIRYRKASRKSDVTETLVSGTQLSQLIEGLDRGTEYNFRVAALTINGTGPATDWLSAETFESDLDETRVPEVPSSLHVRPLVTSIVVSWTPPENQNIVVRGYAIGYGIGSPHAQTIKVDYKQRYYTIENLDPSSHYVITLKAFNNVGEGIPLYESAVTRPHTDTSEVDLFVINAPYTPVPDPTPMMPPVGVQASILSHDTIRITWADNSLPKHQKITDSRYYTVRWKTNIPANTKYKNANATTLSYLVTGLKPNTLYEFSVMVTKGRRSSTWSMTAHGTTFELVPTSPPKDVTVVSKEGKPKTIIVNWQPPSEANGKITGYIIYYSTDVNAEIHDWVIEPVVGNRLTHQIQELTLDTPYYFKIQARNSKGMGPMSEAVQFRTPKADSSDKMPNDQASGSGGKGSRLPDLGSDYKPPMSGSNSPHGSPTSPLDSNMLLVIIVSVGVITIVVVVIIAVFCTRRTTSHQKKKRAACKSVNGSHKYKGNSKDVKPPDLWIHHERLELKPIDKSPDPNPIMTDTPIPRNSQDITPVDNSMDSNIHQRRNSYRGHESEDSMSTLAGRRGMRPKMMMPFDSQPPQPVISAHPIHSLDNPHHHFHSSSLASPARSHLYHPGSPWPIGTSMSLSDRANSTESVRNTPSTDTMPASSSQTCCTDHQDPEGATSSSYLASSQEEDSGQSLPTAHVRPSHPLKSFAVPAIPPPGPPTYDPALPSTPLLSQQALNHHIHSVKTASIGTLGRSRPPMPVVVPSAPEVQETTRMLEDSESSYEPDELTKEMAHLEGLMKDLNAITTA

As to “human CBLN4 (M1-L201) with a C-terminal Fc tag (from UniProt Q9NTU7 28-201) (Fc fusion)”, the lowest CBLN4-Fc concentration at which binding was detected turned out to be 280 nM.

The record behind these values is article PMC3882260.
